Patent publication US20140206849A1 (Alexion, published 2014)

T1: human C5a (human, UniProt P01031 678-751)
T1 sequence (looked up): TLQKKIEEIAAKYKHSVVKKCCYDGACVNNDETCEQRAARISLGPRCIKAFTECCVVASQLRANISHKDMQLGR


What was measured:
human C5a [1] = target: T1, human C5a; experiment: SPR (Biacore), antibody captured by anti-human Fc on CM5 chip, human C5a 0.6-5.9 nM in solution, 1:1 Langmuir fit; humanized antibody
From the text: The humanized antibody was subjected to BIAcore analysis to quantify its affinity for human C5a, in part, to determine if humanization affected the binding affinity of the antibody for its antigen. See, e.g., Karlsson and Larsson (2004) Methods Mol Biol 248:389-415. Briefly, the humanized antibody was screened with 3-4 concentrations of human C5a (antigen) using a capture technique. The antibody was captured by an anti-Fc (human) antibody directly immobilized on a CM5 sensor chip with various concentrations in the range from 0.6 nM to 5.9 nM of human C5a passed over the sensor chip surface. The surface was regenerated with 20 mM HCl, 0.02% P20 after each cycle to remove bound antibody and antigen. The data were evaluated using Biacore BIAevaluation software using a 1:1 Langmuir Model Fit (Rmax:Global Fit; RI:Local Fit). Kinetics information such as kₐ (Association Rate constant), kd (Dissociation Rate constant), and KD (Equillibrium Dissociation constant) was obtained from the fit. […] Methods for testing the humanized antibody for reduced immunogenicity in a human, as compared to the donor antibody, are known in the art and described herein.

human C5a [2] = target: T1, human C5a; experiment: SPR (Biacore), 'under similar conditions' to the humanized antibody; murine antibody

Binder	Kd (human C5a [1])	koff (human C5a [1])	kon (human C5a [1])	Kd (human C5a [2])	koff (human C5a [2])	kon (human C5a [2])
humanized anti-human C5a antibody (antibody, V domains shown, also called humanized anti-C5a antibody; the humanized antibody) VH: QVQLVQSGAEVKKPGASVKVSCKASGYTFTDYSMDWVRQAPGQGLEWMGAINPNSGGTNYNQKFKDRVTMTRDTSTSTVYMELSSLRSEDTAVYYCARSGSYDGYYAMDYWGQGTTVTVSS VL: DIQMTQSPSSLSASVGDRVTITCRASESVDSYGNSFMHWYQQKPGKAPKLLIYRASNLESGVPSRFSGSGSGTDFTLTISSLQPEDFATYYCQQSNEDPYTFGGGTKVEIK	~0.298 nM	~0.000576 s⁻¹	~1.93e+06 M⁻¹ s⁻¹	–	–	–
murine anti-human C5a antibody (antibody, V domains shown, also called murine anti-C5a antibody; murine anti-C5a antibody counterpart) VH: EVQLQQSGPELVKPGSSVKISCKASGYTFTDYSMDWVKQSHGKSLEWIGAINPNSGGTNYSQKFKDKATLTVDKSSSTAYMELRSLTSEDSAVYYCASSGSYDGYYAMDYWGQGTSVTVSS VL: DIVMTQSPASLAVSLGQRATISCRASESVDSYGNSFMHWYQQKPGQPPKLLIYRASNLESGIPARFSGSGSRTDFTLTINPVEADDVATYYCQQSNEDPYTFGGGTKLEIKR	–	–	–	~0.512 nM	~0.00141 s⁻¹	~2.76e+06 M⁻¹ s⁻¹
